From the supplement of paper PMC10567573 come the findings set out here.

To fix the notation:
B1: OAS1 (parent)
chain: LTVYAWERGSMKTHFNTAQGFRTV
B2: ATE1 (parent)
chain: YGSFHQQYWLDGKIIAVGVIDILP
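Further: lentivirally expressed fusions sorted by FACS into six bins by GFP to DsRed ratio, PSI derived from sequencing read proportions per bin multiplied by bin number.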

In one data set the parent is B1. As to the kind of experiment: protein stability index of a GFP-peptide fusion (GPS, HEK-293T) (PSI 1-6); higher = more stable. The settings on record: c terminus: a fixed tail appended.
With LTVYAWERGSMKTHFNTAQGMRTV [F21M], the protein stability index worked out at 1.9.
The same measure, in the same setting: then LTVYAWERGSMKTHFNTAQGYRTV [F21Y], with 2.9.
Take LTVYAWERGSMKTHFNTAQGERTV [F21E]: the protein stability index is 2.1.
Regarding LTVYAWERGSMKTHFNTAQGGRTV [F21G], the protein stability index was 1.4.
Still for that read-out and setting: under LTVYAWERGSMKTHFNTAQGWRTV [F21W] stands 2.21; under LTVYAWERGSMKTHFNTAQGNRTV [F21N], 2.87.
The same measure, in the same setting: under LTVYAWERGSMKTHFNTAQGARTV [F21A] stands 1.9.
Still for that read-out and setting: then LTVYAWERGSMKTHFNTAQGCRTV [F21C], with 2.35; and LTVYAWERGSMKTHFNTAQGRRTV [F21R], with 1.82; and LTVYAWERGSMKTHFNTAQGDRTV [F21D], with 2.09.
Turning to LTVYAWERGSMKTHFNTAQGKRTV [F21K], the protein stability index turned out to be 2.27.
On the same count and under the same terms, then LTVYAWERGSMKTHFNTAQGPRTV [F21P], with 2.33; and LTVYAWERGSMKTHFNTAQGTRTV [F21T], with 1.96; and LTVYAWERGSMKTHFNTAQGLRTV [F21L], with 2.67.
For LTVYAWERGSMKTHFNTAQGIRTV [F21I], the protein stability index is 2.09.
On the same count and under the same terms, under LTVYAWERGSMKTHFNTAQGQRTV [F21Q] stands 1.65; under LTVYAWERGSMKTHFNTAQGSRTV [F21S], 2.42.
On the same count and under the same terms, under LTVYAWERGSMKTHFNTAQGVRTV [F21V] stands 1.82; under LTVYAWERGSMKTHFNTAQGHRTV [F21H], 1.74; under LTVYAWERGSMKTHFNTAQGFRTK [V24K], 1.71.
As for LTVYAWERGSMKTHFNTAQGFRTP [V24P], the protein stability index stood at 2.64.
In the case of LTVYAWERGSMKTHFNTAQGFRTQ [V24Q], the protein stability index turned out to be 2.06.
Same read-out and setting: under LTVYAWERGSMKTHFNTAQGFRTG [V24G] stands 1.73.
Still for that read-out and setting: under LTVYAWERGSMKTHFNTAQGFRTH [V24H] stands 1.61; under LTVYAWERGSMKTHFNTAQGFRTA [V24A], 2.04.
Still for that read-out and setting: under LTVYAWERGSMKTHFNTAQGFRTD [V24D] stands 1.63; under LTVYAWERGSMKTHFNTAQGFRTT [V24T], 1.8; under LTVYAWERGSMKTHFNTAQGFRTS [V24S], 3.01.
As for LTVYAWERGSMKTHFNTAQGFRTI [V24I], the protein stability index turned out to be 3.42.
Still for that read-out and setting: then LTVYAWERGSMKTHFNTAQGFRTY [V24Y], with 2.51; and LTVYAWERGSMKTHFNTAQGFRTE [V24E], with 2.51; and LTVYAWERGSMKTHFNTAQGFRTN [V24N], with 2.84.
On the same count and under the same terms, under LTVYAWERGSMKTHFNTAQGFRTM [V24M] stands 1.96; under LTVYAWERGSMKTHFNTAQGFRTF [V24F], 2.35; under LTVYAWERGSMKTHFNTAQGFRTL [V24L], 1.68.
Same read-out and setting: then LTVYAWERGSMKTHFNTAQGFRTC [V24C], with 2.83; and LTVYAWERGSMKTHFNTAQGFRTR [V24R], with 1.69; and LTVYAWERGSMKTHFNTAQGFDTV [R22D], with 2.38.
Turning to LTVYAWERGSMKTHFNTAQGFGTV [R22G], the protein stability index worked out at 1.45.
The same measure, in the same setting: then LTVYAWERGSMKTHFNTAQGFMTV [R22M], with 2.53; and LTVYAWERGSMKTHFNTAQGFWTV [R22W], with 1.93.
In the case of LTVYAWERGSMKTHFNTAQGFHTV [R22H], the protein stability index was 3.33.
The same measure, in the same setting: under LTVYAWERGSMKTHFNTAQGFTTV [R22T] stands 2.44.
Same read-out and setting: then LTVYAWERGSMKTHFNTAQGFETV [R22E], with 2.82; and LTVYAWERGSMKTHFNTAQGFATV [R22A], with 3.1.
The same measure, in the same setting: under LTVYAWERGSMKTHFNTAQGFYTV [R22Y] stands 3.17.
LTVYAWERGSMKTHFNTAQGFFTV [R22F]: the protein stability index stood at 1.87.
With LTVYAWERGSMKTHFNTAQGFVTV [R22V], the protein stability index was 2.33.
The same measure, in the same setting: then LTVYAWERGSMKTHFNTAQGFLTV [R22L], with 3.28; and LTVYAWERGSMKTHFNTAQGFPTV [R22P], with 3.8.
Take LTVYAWERGSMKTHFNTAQGFNTV [R22N]: the protein stability index worked out at 2.38.
Still for that read-out and setting: under LTVYAWERGSMKTHFNTAQGFKTV [R22K] stands 1.71; under LTVYAWERGSMKTHFNTAQGFITV [R22I], 1.73.
Still for that read-out and setting: then LTVYAWERGSMKTHFNTAQGFRNV [T23N], with 3.21; and LTVYAWERGSMKTHFNTAQGFRKV [T23K], with 2.39; and LTVYAWERGSMKTHFNTAQGFRHV [T23H], with 3.17.
As for LTVYAWERGSMKTHFNTAQGFRSV [T23S], the protein stability index is 2.78.
Same read-out and setting: then LTVYAWERGSMKTHFNTAQGFRGV [T23G], with 2.76.
On the same count and under the same terms, under LTVYAWERGSMKTHFNTAQGFRFV [T23F] stands 2.29.
As to LTVYAWERGSMKTHFNTAQGFRPV [T23P], the protein stability index turned out to be 2.61.
Same read-out and setting: under LTVYAWERGSMKTHFNTAQGFRIV [T23I] stands 2.69; under LTVYAWERGSMKTHFNTAQGFRLV [T23L], 2.25.
Still for that read-out and setting: under LTVYAWERGSMKTHFNTAQGFRMV [T23M] stands 3.15.
Still for that read-out and setting: under LTVYAWERGSMKTHFNTAQGFRDV [T23D] stands 3.86.
Take LTVYAWERGSMKTHFNTAQGFRRV [T23R]: the protein stability index came to 1.4.
The same measure, in the same setting: then LTVYAWERGSMKTHFNTAQGFRYV [T23Y], with 1.32.
The same measure, in the same setting: under LTVYAWERGSMKTHFNTAQGFRQV [T23Q] stands 1.9; under LTVYAWERGSMKTHFNTAQGFRAV [T23A], 1.8; under LTVYAWERGSMKTHFNTAQYFRTV [G20Y], 3.45.
Same read-out and setting: under LTVYAWERGSMKTHFNTAQIFRTV [G20I] stands 3.
LTVYAWERGSMKTHFNTAQTFRTV [G20T]: the protein stability index is 2.89.
Turning to LTVYAWERGSMKTHFNTAQRFRTV [G20R], the protein stability index was determined as 3.81.
Same read-out and setting: under LTVYAWERGSMKTHFNTAQKFRTV [G20K] stands 1.61.
In the case of LTVYAWERGSMKTHFNTAQPFRTV [G20P], the protein stability index turned out to be 2.25.
For LTVYAWERGSMKTHFNTAQSFRTV [G20S], the protein stability index was found to be 3.02.
The same measure, in the same setting: then LTVYAWERGSMKTHFNTAQHFRTV [G20H], with 2.56; and LTVYAWERGSMKTHFNTAQQFRTV [G20Q], with 2.14.
The same measure, in the same setting: under LTVYAWERGSMKTHFNTAQWFRTV [G20W] stands 1.9; under LTVYAWERGSMKTHFNTAQNFRTV [G20N], 2.19; under LTVYAWERGSMKTHFNTAQLFRTV [G20L], 3.19.
Regarding LTVYAWERGSMKTHFNTAQVFRTV [G20V], the protein stability index was found to be 2.89.

A further data set covers variants of B2. The data set is described as above. The settings on record: c terminus: a fixed tail appended.
YGSFHQWYWLDGKIIAVGVIDILP [Q7W]: the protein stability index came out at 4.02.
The same measure, in the same setting: then YGSFHQSYWLDGKIIAVGVIDILP [Q7S], with 4.74; and YGSFHQAYWLDGKIIAVGVIDILP [Q7A], with 4.84; and YGSFHQIYWLDGKIIAVGVIDILP [Q7I], with 2.67.
As to YGSFHQRYWLDGKIIAVGVIDILP [Q7R], the protein stability index amounted to 2.99.
Same read-out and setting: under YGSFHQTYWLDGKIIAVGVIDILP [Q7T] stands 3.51; under YGSFHQLYWLDGKIIAVGVIDILP [Q7L], 2.01; under YGSFHQHYWLDGKIIAVGVIDILP [Q7H], 2.4.
Still for that read-out and setting: then YGSFHQGYWLDGKIIAVGVIDILP [Q7G], with 3.84.
The same measure, in the same setting: under YGSFHQPYWLDGKIIAVGVIDILP [Q7P] stands 2.94; under YGSFHQDYWLDGKIIAVGVIDILP [Q7D], 2.72.
For the variant YGSFHQCYWLDGKIIAVGVIDILP [Q7C], the protein stability index stood at 3.33.
Still for that read-out and setting: then YGSFHQFYWLDGKIIAVGVIDILP [Q7F], with 2.02.
